Among the data in PMC7181697 are Kd values, retold here.

The target in assay [1] is REV7^Y63A-SHLD3(1–82) (human) (UniProt Q9UI95). Briefly: ITC; method not named in the sentence (Supplementary Fig. 7e, f); ITC is the only method for affinities that the methods describe. (ITC needs no label: the signal is the heat of the interaction.)
Assay [2] has as its target REV7^W171A-SHLD3(1–82) (human) (UniProt Q9UI95). Described as above.

Sequence of REV7^W171A-SHLD3(1–82) (human) (Q9UI95 whole entry W171A, chain 1 of 2): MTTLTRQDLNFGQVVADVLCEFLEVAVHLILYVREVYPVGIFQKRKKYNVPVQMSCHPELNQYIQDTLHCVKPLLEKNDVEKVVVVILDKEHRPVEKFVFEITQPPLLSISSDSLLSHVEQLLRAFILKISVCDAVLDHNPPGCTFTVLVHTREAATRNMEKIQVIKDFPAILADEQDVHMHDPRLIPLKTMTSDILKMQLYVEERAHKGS
Sequence of REV7^W171A-SHLD3(1–82) (human) (Q6ZNX1 1-82, chain 2 of 2, further chain): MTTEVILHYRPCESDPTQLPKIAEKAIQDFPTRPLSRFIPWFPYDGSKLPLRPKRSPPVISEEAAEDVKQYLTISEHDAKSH
Sequence of REV7^Y63A-SHLD3(1–82) (human) (Q9UI95 whole entry Y63A, chain 1 of 2): as the sequence (Q9UI95 whole entry W171A, chain 1 of 2) above, with Y63A, A171W counted along it
Sequence of REV7^Y63A-SHLD3(1–82) (human) (Q6ZNX1 1-82, chain 2 of 2, further chain): as the sequence (Q6ZNX1 1-82, chain 2 of 2, further chain) above

B1: MBP-REV3(1847–2021) (domain or fragment)
chain: MLTPTPDSSPRSTSSPSQSKNGSFTPRTANILKPLMSPPSREEIMATLLDHDLSETIYQEPFCSNPSDVPEKPREIGGRLLMVETRLANDLAEFEGDFSLEGLRLWKTAFSAMTQNPRPGSPLRSGQGVVNKGSSNSPKMVEDKKIVIMPCKCAPSRQLVQVWLQAKEEYERSKK
Broadly, the Kd is the concentration at which binding is half-saturated. B1: the Kd in assay [1] was 37 µM; in assay [2] it was 1.1 µM.
